Non-standard residues stand in square brackets, D forms with d. No end group written: not given here.
Tests used:
[1] = biological target: T1, human gpr-54 receptor (human, UniProt Q969F8 1-398); experiment: cell-based or functional assay
[2] = biological target: T1, human gpr-54 receptor; experiment: whole-cell competition binding against 125I-kisspeptin, CHO cells stably transfected with GPR54 (CPM); the fall of the curve lies between Total and -10 LogM [200]
Method: (§1) Cell monolayers were placed on ice and exposed to 0.5 mls peptide (10 pM-1 uM); the cells were then incubated at 4° C. for 4 hr. After 4 hrs, cells were washed twice with ice cold Dulbecco's phosphate buffered saline (DPBS; with Calcium and Magnesium) and then 0.5 mls 0.1M Sodium Hydroxide (NaOH) were added to cells for 20 minutes, shaking to lyse cells. Lysates were transferred to plastic tubes and bound radioactivity counted on the gamma counter for 60 seconds.

[3] = biological target: T1, human gpr-54 receptor; experiment: cell-based or functional assay; remark: listed apart in the source
[4] = biological target: T1, human gpr-54 receptor; experiment: whole-cell competition binding against 125I-kisspeptin, CHO cells stably transfected with hGPR54 (CPM) [187]
Method: as §1

[5] = biological target: T1, human gpr-54 receptor; experiment: cell-based or functional assay; remark: listed apart in the source
[6] = biological target: T1, human gpr-54 receptor; experiment: cell-based or functional assay; remark: listed apart in the source
[7] = biological target: T1, human gpr-54 receptor; experiment: whole-cell competition binding against 125I-kisspeptin, CHO cells stably transfected with GPR54 (CPM); the fall of the curve lies between Total and -10 LogM [228]
Method: as §1

[8] = biological target: T1, human gpr-54 receptor; experiment: cell-based or functional assay; remark: listed apart in the source
[9] = biological target: T1, human gpr-54 receptor; experiment: whole-cell competition binding against 125I-kisspeptin, CHO cells stably transfected with GPR54 (CPM); the fall of the curve lies between Total and -10 LogM [231]
Method: as §1

[10] = biological target: T1, human gpr-54 receptor; experiment: cell-based or functional assay; remark: listed apart in the source
[11] = biological target: T1, human gpr-54 receptor; experiment: competition of I125-labelled kisspeptin-10 on gpr-54 cells (CPM x 10^3); the legend calls the number an affinity
[12] = biological target: T1, human gpr-54 receptor; experiment: whole-cell competition binding against 125I-kisspeptin, CHO cells stably transfected with GPR54 (CPM) [234]
Method: as §1

[13] = biological target: T1, human gpr-54 receptor; experiment: cell-based or functional assay; remark: listed apart in the source
[14] = biological target: T1, human gpr-54 receptor; experiment: cell-based or functional assay; remark: listed apart in the source
[15] = biological target: T1, human gpr-54 receptor; experiment: whole-cell competition binding against 125I-kisspeptin, CHO cells stably transfected with GPR54 (CPM); upper curve, no lower plateau reached at -5 LogM [212]
Method: as §1

[16] = biological target: T1, human gpr-54 receptor; experiment: whole-cell competition binding against 125I-kisspeptin, CHO cells stably transfected with GPR54 (CPM) [229]
Method: as §1

[17] = biological target: T1, human gpr-54 receptor; experiment: cell-based or functional assay; remark: listed apart in the source
[18] = biological target: T1, human gpr-54 receptor; experiment: whole-cell competition binding against 125I-kisspeptin, CHO cells stably transfected with hGPR54 (CPM) [188]
Method: as §1

[19] = biological target: T1, human gpr-54 receptor; experiment: cell-based or functional assay; remark: listed apart in the source

T1 sequence (Q969F8 whole entry): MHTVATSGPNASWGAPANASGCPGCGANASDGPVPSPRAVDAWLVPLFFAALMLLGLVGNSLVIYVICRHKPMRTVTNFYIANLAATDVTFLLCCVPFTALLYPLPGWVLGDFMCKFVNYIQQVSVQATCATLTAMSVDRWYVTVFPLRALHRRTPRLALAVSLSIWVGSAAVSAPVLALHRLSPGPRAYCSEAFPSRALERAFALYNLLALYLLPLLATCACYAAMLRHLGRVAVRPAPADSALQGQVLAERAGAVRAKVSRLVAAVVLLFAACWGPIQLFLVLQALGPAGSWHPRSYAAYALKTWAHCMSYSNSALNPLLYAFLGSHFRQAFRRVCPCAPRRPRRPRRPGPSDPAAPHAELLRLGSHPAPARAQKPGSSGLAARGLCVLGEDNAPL

B1: 200 (peptide)
peptide: Ac-FGL[dR]W-NH2
modifications: not fully specified
notes: kisspeptin-10 analogue; also called acFGL[(D)-R]W
[1]
  Inhibition of IP stimulation by 10nM Agonist: % Inhibition of Max: 63%
  Inhibition of IP stimulation by 10nM Agonist: IC50: 300 nM
[2]
  IC50: 0.00249 nM
[3]
  IP competition with 10nM kisspeptin-10: IC50 [200]: 300 nM

B2: 187 (peptide)
peptide: YNWNSFGLRW-NH2
notes: kisspeptin-10 analogue
[1]
  IP stimulation (IC50), peptide alone: 40 nM
  Inhibition of IP stimulation by 10nM Agonist: % Inhibition of Max: 36%
[4]
  IC50: 211 nM
[5]
  IP dose response, peptide alone: EC50 (unlabelled number beside rising curve) [187]: 72.1 nM

B3: 228 (peptide)
peptide: Ac-YNWNGFG[dW]RF-NH2
SMILES: CC(=O)N[C@@H](Cc1ccc(O)cc1)C(=O)N[C@@H](CC(N)=O)C(=O)N[C@@H](Cc1c[nH]c2ccccc12)C(=O)N[C@@H](CC(N)=O)C(=O)NCC(=O)N[C@@H](Cc1ccccc1)C(=O)NCC(=O)N[C@H](Cc1c[nH]c2ccccc12)C(=O)N[C@@H](CCCNC(=N)N)C(=O)N[C@@H](Cc1ccccc1)C(N)=O
notes: kisspeptin-10 analogue; also called acYNWNGFG[(D)-W]RF
[1]
  Inhibition of IP stimulation by 10nM Agonist: % Inhibition of Max: 58%
  Inhibition of IP stimulation by 10nM Agonist: IC50: 50 nM
[6]
  IP competition with 10nM kisspeptin-10: IC50 [228]: 50 nM
[7]
  IC50: 0.00655 nM

B4: 231 (peptide)
peptide: Ac-YN[dW]NGFG[dW]RF-NH2
SMILES: CC(=O)N[C@@H](Cc1ccc(O)cc1)C(=O)N[C@@H](CC(N)=O)C(=O)N[C@H](Cc1c[nH]c2ccccc12)C(=O)N[C@@H](CC(N)=O)C(=O)NCC(=O)N[C@@H](Cc1ccccc1)C(=O)NCC(=O)N[C@H](Cc1c[nH]c2ccccc12)C(=O)N[C@@H](CCCNC(=N)N)C(=O)N[C@@H](Cc1ccccc1)C(N)=O
notes: kisspeptin-10 analogue; also called acYN[(D)-W]NGFG[(D)-W]RF
[8]
  IP competition with 10nM kisspeptin-10: IC50 [231]: 0.1 nM
[1]
  Inhibition of IP stimulation by 10nM Agonist: % Inhibition of Max: 55%
  Inhibition of IP stimulation by 10nM Agonist: IC50: 0.1 nM
[9]
  IC50: 0.000564 nM

B5: Peptide 234 (peptide)
peptide: [dA]NWNGFG[dW]RF-NH2
[1]
  Inhibition of IP stimulation by 10nM Agonist: IC50: 70 nM
[10]
  IP competition with 10nM kisspeptin-10: IC50 [234]: 70 nM
[11]
  IC50: 2.8 nM
[12]
  IC50: 2.79 nM
[13]
  IC50 of inhibition of 10 nM kisspeptin-10 stimulation of IP: 7 nM
  IC50 of inhibition of kisspeptin stimulation of IP: < 10 nM

B6: 212 (peptide)
peptide: YNWNG[dW]GLRF-NH2
modifications: N-terminus assumed
SMILES: CC(C)C[C@H](NC(=O)CNC(=O)[C@@H](Cc1c[nH]c2ccccc12)NC(=O)CNC(=O)[C@H](CC(N)=O)NC(=O)[C@H](Cc1c[nH]c2ccccc12)NC(=O)[C@H](CC(N)=O)NC(=O)[C@@H](N)Cc1ccc(O)cc1)C(=O)N[C@@H](CCCNC(=N)N)C(=O)N[C@@H](Cc1ccccc1)C(N)=O
notes: kisspeptin-10 analogue; also called YNWNG[(D)-W]GLRF
[14]
  IP competition with 10nM kisspeptin-10: IC50 [212]: < 0.1 nM
  IP dose response, peptide alone: EC50 (unlabelled number beside rising curve; rise only at -5 LogM) [212]: 0.000205 M
[1]
  IP stimulation (IC50), peptide alone: 300000 nM
  Inhibition of IP stimulation by 10nM Agonist: % Inhibition of Max: 88%
  Inhibition of IP stimulation by 10nM Agonist: IC50: < 0.1 nM
[15]
  IC50: 6330 nM

B7: 229 (peptide)
peptide: Ac-YNWN[dW]FG[dW]RF-NH2
SMILES: CC(=O)N[C@@H](Cc1ccc(O)cc1)C(=O)N[C@@H](CC(N)=O)C(=O)N[C@@H](Cc1c[nH]c2ccccc12)C(=O)N[C@@H](CC(N)=O)C(=O)N[C@H](Cc1c[nH]c2ccccc12)C(=O)N[C@@H](Cc1ccccc1)C(=O)NCC(=O)N[C@H](Cc1c[nH]c2ccccc12)C(=O)N[C@@H](CCCNC(=N)N)C(=O)N[C@@H](Cc1ccccc1)C(N)=O
notes: kisspeptin-10 analogue; also called acYNWN[(D)-W]FG[(D)-W]RF
[1]
  Inhibition of IP stimulation by 10nM Agonist: % Inhibition of Max: 68%
  Inhibition of IP stimulation by 10nM Agonist: IC50: 8000 nM
[16]
  IC50: 1.17 nM
[17]
  IP competition with 10nM kisspeptin-10: IC50 [229]: 8000 nM

B8: 188 (peptide)
peptide: Ac-FGLRF-NH2
notes: kisspeptin-10 analogue; also called Peptide 188; acFGLRF
[1]
  IP stimulation (IC50), peptide alone: 125 nM
  Inhibition of IP stimulation by 10nM Agonist: % Inhibition of Max: 74%
[18]
  IC50: 143 nM
[19]
  IP competition with 10nM kisspeptin-10: IC50 [188]: < 0.1 nM
  IP dose response, peptide alone: EC50 (unlabelled number beside rising curve) [188]: 92.3 nM

From US20110046068A1 (MEDICAL RESEARCH COUNCIL, published 2011)
